Molecular target: SARS-CoV-2 spike receptor-binding domain (RBD), wild type (SARS-CoV-2, Wuhan-Hu-1 (wild type), UniProt P0DTC2)
Assay: cryo-EM structure

Binder	binding result
Nb17 (VHH) VHH: HVQLVESGGGLVQAGGSLRLSCAASGSIFSSNAMSWYRQAPGKQRELVASITSGGNADYADSVKGRFTISRDKNTVYPEMSSLKPADTAVYYCHAVGQEASAYAPRAYWGQGTQVTVSS	binds
Nb21 (VHH) VHH: QVQLVESGGGLVQAGGSLRLSCAVSGLGAHRVGWFRRAPGKEREFVAAIGANGGNTNYLDSVKGRFTISRDNAKNTIYLQMNSLKPQDTAVYYCAARDIETAEYTYWGQGTQVTVSS	binds
Nb36 (VHH) VHH: VQLVESGGGLVQAGGSLTLTCAASGRTFSSETMDMGWFRQAPGKEREFVAADSWNDGSTYYADSVKGRFTISRDSAKNTLYLQMNSLKPEDTAVYYCAAETYSIYEKDDSWGYWGQGTQVTVS	binds

Reference: article PMC7987009 (bioRxiv, 2021)
